The source of these data is patent US20050282743A1, “Molecular interactions in cells” (Arbor Vita Corporation, priority 2001, published 2005).

What all share (assay): G' assay
Experiment [1] deals with T1, GST-APXL-1 PDZ domain 1 (Homo sapiens (Human)), Q13796.
T1 chain: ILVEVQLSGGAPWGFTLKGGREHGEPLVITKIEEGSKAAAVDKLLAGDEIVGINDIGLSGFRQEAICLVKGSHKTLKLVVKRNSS

In experiment [2] the target is T2, GST-ENIGMA PDZ domain 1 (Homo sapiens (Human)), Q9NR12.
T2 chain: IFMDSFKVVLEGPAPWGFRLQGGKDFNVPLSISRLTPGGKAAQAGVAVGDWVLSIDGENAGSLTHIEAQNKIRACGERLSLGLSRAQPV

Experiment [3] deals with T3, GST-FLJ 10324 PDZ domain 1 [GST: P08515].
T3 chain: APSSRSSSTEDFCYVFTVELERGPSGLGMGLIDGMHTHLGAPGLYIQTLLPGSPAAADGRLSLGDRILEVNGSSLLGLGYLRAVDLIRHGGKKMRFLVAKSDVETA

Experiment [4] addresses T4, GST-MUPP1 PDZ domain 11 (Homo sapiens (Human)), O75970.
T4 chain: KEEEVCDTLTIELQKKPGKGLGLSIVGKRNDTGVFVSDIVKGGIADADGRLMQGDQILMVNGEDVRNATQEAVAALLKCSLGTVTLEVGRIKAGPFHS

Experiment [5] deals with T5, GST-ZO-1 PDZ domain 1 (Rattus norvegicus (Rat)), A0A0G2.
T5 chain: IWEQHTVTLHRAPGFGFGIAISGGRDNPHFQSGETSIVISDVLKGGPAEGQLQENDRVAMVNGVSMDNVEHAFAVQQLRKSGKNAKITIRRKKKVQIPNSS

Experiment [6] has as its target T6, GST-PTPL1 PDZ domain 4 (Homo sapiens (Human)), Q12923.
T6 chain: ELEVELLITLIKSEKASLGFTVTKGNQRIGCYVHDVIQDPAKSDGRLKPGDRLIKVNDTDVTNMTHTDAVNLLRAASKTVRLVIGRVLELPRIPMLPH

Experiment [7] concerns the target T7, GST-ZO-2 PDZ domain 1 (Homo sapiens (Human)), Q9UDY2.
T7 chain: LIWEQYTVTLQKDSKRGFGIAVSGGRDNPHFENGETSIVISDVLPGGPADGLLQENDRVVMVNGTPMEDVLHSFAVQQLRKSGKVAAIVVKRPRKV

The target of experiment [8] is T8, GST-TIP1 PDZ domain 1 (Table 9 insert) (Homo sapiens (Human)), O14907.
T8 chain: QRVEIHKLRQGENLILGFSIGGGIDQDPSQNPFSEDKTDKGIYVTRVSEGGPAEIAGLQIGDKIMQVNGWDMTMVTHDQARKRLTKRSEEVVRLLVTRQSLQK

Experiment [9] addresses GST-DLG1 PDZ domains 1, 2 (Homo sapiens), Q12959.
Experiment [10] concerns the target T9, GST-AF6 PDZ domain 1 (Homo sapiens (Human)), P55196.
T9 chain: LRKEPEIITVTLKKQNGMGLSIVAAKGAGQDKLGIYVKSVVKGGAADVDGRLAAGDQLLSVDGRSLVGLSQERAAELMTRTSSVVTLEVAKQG

Experiment [11] concerns the target T10, GST-HEMBA 1003117 PDZ domain 1 (Homo sapiens (Human)), Q96JH8.
T10 chain: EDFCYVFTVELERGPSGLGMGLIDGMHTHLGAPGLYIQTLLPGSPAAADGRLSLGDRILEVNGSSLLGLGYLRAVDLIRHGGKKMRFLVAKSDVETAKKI

Experiment [12] addresses GST-PIST PDZ domain 1 (Mus musculus (Mouse)), Q8BH60.
Experiment [13] deals with T11, GST-MUPP1 PDZ domain 13 (Homo sapiens (Human)), O75970.
T11 chain: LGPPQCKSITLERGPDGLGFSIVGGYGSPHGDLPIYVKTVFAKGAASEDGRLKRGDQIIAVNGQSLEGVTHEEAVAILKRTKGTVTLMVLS

Experiment [14] addresses GST-BAI-1 Associated Protein PDZ domain 5 (Homo sapiens (Human)), Q96QZ7.
The target of experiment [15] is T12, GST-AIPC PDZ domain 1 (Homo sapiens (Human)), O15018.
T12 chain: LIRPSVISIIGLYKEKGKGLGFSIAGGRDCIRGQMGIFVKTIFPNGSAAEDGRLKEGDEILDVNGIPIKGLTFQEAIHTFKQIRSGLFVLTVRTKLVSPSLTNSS

Experiment [16] has as its target GST-DLG1 PDZ domain 1 (Homo sapiens), Q12959.
Experiment [17] deals with T13, GST-Outer Membrane PDZ domain 1 (Homo sapiens (Human)), P57105.
T13 chain: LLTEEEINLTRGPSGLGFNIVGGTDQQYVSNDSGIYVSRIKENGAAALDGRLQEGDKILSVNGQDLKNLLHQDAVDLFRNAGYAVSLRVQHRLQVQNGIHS

The target of experiment [18] is T14, GST-MINT1 PDZ domains 1, 2, Q02410.
T14 chain: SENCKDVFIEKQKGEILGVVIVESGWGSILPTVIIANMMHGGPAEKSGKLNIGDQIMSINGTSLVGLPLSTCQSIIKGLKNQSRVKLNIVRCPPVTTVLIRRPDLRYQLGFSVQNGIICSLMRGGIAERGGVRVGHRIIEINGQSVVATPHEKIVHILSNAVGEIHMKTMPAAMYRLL

Experiment [19] has as its target T15, GST-MUPP1 PDZ domain 10 (Homo sapiens (Human)), O75970.
T15 chain: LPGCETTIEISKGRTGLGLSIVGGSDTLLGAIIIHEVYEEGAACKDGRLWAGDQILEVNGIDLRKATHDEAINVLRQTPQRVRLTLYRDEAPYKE

For experiment [20], the target named is GST-PSD95 PDZ domain 1 (Homo sapiens).
Experiment [21] concerns the target T16, GST-INADL PDZ domain 8 (Homo sapiens (Human)), Q8NI35.
T16 chain: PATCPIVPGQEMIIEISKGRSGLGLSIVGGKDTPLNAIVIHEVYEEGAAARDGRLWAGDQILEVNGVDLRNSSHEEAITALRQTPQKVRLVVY

Experiment [22] deals with GST-PSD95 PDZ domains 1, 2, 3 (Homo sapiens), P78352.
Chain of GST-PSD95 PDZ domains 1, 2, 3 (Homo sapiens), P78352 (P78352 62-395): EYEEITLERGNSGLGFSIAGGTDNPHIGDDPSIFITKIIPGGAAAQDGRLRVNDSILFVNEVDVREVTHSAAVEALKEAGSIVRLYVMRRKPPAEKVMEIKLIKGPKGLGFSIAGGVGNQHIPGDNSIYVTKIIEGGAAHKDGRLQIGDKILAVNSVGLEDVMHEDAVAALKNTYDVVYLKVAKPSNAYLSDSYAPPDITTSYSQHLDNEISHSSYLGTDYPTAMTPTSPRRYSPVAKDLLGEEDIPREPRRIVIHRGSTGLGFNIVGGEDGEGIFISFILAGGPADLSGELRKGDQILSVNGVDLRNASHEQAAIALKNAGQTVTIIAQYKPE
The target in experiment [23] is T17, GST-DLG1 PDZ domain 2 (Homo sapiens), Q12959.
T17 chain: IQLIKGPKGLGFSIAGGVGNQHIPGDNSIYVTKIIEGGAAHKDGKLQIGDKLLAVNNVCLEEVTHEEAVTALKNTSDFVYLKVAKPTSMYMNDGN

For experiment [24], the target named is T18, GST-NeDLG PDZ domains 1, 2, Q92796.
T18 chain: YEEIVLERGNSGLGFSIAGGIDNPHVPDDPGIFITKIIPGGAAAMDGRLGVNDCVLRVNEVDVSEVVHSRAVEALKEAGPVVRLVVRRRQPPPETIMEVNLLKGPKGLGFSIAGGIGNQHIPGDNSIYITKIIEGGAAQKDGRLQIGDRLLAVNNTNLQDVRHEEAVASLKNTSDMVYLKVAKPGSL

Experiment [25] deals with T19, GST-NeDLG PDZ domain 2 (Rattus norvegicus (Rat)), Q62936.
T19 chain: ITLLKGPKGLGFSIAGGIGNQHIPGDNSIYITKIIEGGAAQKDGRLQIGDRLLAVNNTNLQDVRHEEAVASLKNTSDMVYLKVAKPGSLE

For experiment [26], the target named is GST-KIAA807 [GST: P08515].
Chain of GST-KIAA807 [GST: P08515] (P08515 whole entry, the tested form may be a part): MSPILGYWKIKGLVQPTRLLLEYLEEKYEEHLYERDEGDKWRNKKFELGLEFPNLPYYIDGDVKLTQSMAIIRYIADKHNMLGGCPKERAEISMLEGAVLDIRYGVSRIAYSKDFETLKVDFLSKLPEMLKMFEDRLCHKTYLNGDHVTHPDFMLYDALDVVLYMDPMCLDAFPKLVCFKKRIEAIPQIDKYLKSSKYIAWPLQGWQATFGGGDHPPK
Experiment [27] has as its target T20, GST-PTPL1 PDZ domain 2 (Homo sapiens (Human)), Q12923.
T20 chain: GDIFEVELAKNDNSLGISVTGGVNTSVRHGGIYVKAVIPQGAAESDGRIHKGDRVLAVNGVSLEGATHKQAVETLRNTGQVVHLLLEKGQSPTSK

In experiment [28] the target is GST-BAI-1 Associated Protein PDZ domain 2 (Mus musculus (Mouse)), Q6RHR9.
Chain of GST-BAI-1 Associated Protein PDZ domain 2 (Mus musculus (Mouse)), Q6RHR9 (Q6RHR9 455-558): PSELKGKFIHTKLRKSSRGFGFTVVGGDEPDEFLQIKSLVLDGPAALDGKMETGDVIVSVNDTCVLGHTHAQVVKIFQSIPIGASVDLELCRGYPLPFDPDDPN
Experiment [29] deals with T21, GST-KIAA1634 PDZ domain 2 (Homo sapiens (Human)), Q5TCQ9.
T21 chain: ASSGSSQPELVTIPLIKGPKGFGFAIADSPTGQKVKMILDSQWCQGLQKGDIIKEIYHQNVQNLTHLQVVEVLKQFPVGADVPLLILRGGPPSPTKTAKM

For experiment [30], the target named is GST-KIAA1634 PDZ domain 1 (Homo sapiens (Human)), Q5TCQ9.
Chain of GST-KIAA1634 PDZ domain 1 (Homo sapiens (Human)), Q5TCQ9 (Q5TCQ9 401-502): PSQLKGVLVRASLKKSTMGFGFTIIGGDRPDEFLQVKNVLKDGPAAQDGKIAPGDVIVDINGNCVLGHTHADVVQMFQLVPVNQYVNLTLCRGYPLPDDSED
The target of experiment [31] is T22, GST-DLG2 PDZ domain 2 (Homo sapiens (Human)), Q15700.
T22 chain: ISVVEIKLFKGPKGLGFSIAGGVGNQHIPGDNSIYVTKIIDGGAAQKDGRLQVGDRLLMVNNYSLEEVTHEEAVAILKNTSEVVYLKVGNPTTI

Experiment [32] has as its target GST-KIAA0147 PDZ domain 1 (Homo sapiens (Human)), Q14160.
The target in experiment [33] is T23, GST-KIAA0807(S) PDZ domain 1 (Homo sapiens (Human)), Q6P0Q8.
T23 chain: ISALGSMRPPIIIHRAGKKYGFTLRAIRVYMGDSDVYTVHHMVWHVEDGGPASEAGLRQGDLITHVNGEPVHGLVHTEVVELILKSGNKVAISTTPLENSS

Experiment [34] addresses T24, GST-MINT1 PDZ domain 2 (Mus musculus (Mouse)), B2RUJ5.
T24 chain: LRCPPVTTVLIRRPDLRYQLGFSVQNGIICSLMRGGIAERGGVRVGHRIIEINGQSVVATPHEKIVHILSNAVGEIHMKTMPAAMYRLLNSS

Experiment [35] has as its target GST-BAI-1 Associated Protein PDZ domain 4 (Homo sapiens (Human)), Q96QZ7.
Experiment [36] has as its target T25, GST-X-11 beta PDZ domain 2 (Rattus norvegicus (Rat)), O35431.
T25 chain: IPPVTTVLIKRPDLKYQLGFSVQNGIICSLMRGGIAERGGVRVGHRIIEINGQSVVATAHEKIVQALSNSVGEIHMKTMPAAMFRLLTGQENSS
Note: key of the grades not given here.

Chain of GST-BAI-1 Associated Protein PDZ domain 4 (Homo sapiens (Human)), Q96QZ7 (Q96QZ7 other isoform, or with tags, fused parts or gaps): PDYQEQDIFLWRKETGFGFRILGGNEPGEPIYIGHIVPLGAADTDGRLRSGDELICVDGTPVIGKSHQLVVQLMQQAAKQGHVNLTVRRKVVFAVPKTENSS
Chain of GST-BAI-1 Associated Protein PDZ domain 5 (Homo sapiens (Human)), Q96QZ7 (Q96QZ7 988-1099): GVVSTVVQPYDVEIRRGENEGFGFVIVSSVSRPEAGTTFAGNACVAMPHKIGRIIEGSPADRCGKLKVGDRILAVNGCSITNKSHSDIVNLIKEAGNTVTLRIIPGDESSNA
Chain of GST-KIAA0147 PDZ domain 1 (Homo sapiens (Human)), Q14160 (Q14160 other isoform, or with tags, fused parts or gaps): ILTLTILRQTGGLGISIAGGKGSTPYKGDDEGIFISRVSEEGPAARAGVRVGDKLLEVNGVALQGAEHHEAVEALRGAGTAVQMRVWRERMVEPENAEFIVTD

B1: CDW125 (modified) (peptide)
peptide: EVIGYIEKPGVETLEDSVF
modifications: not checked
Regarding B1, the Classification in [1] and in experiment [2] was 1 A450 class each time.

B2: RGS12 (regulator of G-protein signaling 12 (peptide)
peptide: GPVPGEPAKPKTSAHHATFV
modifications: not checked
On to B2, for which the Classification in experiment [3], in experiment [4], in [5], in experiment [6], in experiment [7] and in experiment [8] was 1 A450 class in each case. The Classification in experiment [9], in [10], in [11] and in experiment [12] was 1 A450 class each time.

B3: Clasp-2 (peptide)
peptide: ISGTPTSTMVHGMTSSSSVV
modifications: not checked
Consider B3, for which the Classification in [3], in experiment [13], in [14], in experiment [15], in [16] and in [17] was 1 A450 class throughout. The Classification in experiment [18] amounted to 1 A450 class; in [19] it was 1 A450 class; in [20], 1 A450 class; in experiment [21], 1 A450 class; in [22], 2 A450 class; in experiment [23], 1 A450 class. Besides, the Classification in experiment [24] was 2 A450 class; in experiment [25], 1 A450 class; in [26] it was 1 A450 class; in experiment [27], 1 A450 class; in experiment [28], 1 A450 class; in experiment [29], 1 A450 class. This molecule also came in with a Classification in experiment [30] of 1 A450 class.

B4: GLUR2 (glutamate receptor 2-modified) (peptide)
peptide: GGGGGSGGGGGSGIESVKI
modifications: not checked
B4: the Classification in [15] is 2 A450 class; in experiment [31] it was 1 A450 class; in experiment [32], 1 A450 class; in experiment [22] it was 2 A450 class; in experiment [33] it was 1 A450 class; in experiment [9], 2 A450 class. Also, the Classification was 1 A450 class in experiment [2], 1 A450 class in experiment [23], 2 A450 class in experiment [24] and 4 A450 class in experiment [30].

B5: glutamate transporter 3 (peptide)
peptide: NGGFAVDKSDTISFTQTSQF
modifications: not checked
As for B5, the Classification in experiment [34], in experiment [1], in [18], in experiment [6], in experiment [19] and in experiment [35] was 1 A450 class each time. The Classification in experiment [33], in [36] and in experiment [26] was 1 A450 class each time.
